Results: US20200289563A1 (WUXI BIOLOGICS IRELAND, published 2020)
Numbering of substitutions follows the chain as printed.

B1: WBP7011-4.100.1 (antibody, V domains shown)
VH: EVQLQQSGPELVKPGASVKMSCKASGYTFTSYVIHWVKQKPGQGLEWIGYINPYNDGAEYTEKFKGKATLTSDKSSSTAYMELSSLTSEDSTVYYCARGPYYYGGSPFDYWGQGTTLTVSS
VL: DAVMTQTPLSLPVSLGDQASISCRSSQSLENSNGNTYLNWYLQKPGQSPQLLIYRVSNRFSGVLDRFSGSGSGTDFTLKISRVEAEDLGVYFCLQVTHVPYTFGGGTKLEIK
notes: also called W7011-4.100.1
B2: WBP7011-4.34.11 (antibody, V domains shown)
VH: B1 VH with S31N, I51F, A58T, T61N, G66A, T92A, R98K, G105S
VL: B1 VL
B3: WBP7011_4.56.1 (antibody, V domains shown)
VH: B1 VH with S31N, A58T, T61N, K74T, E82A, T92A, A97T
VL: B1 VL
notes: also called W7011-4.56.1
B4: WBP7011_4.191.6 (antibody, mouse IgG1, V domains shown)
VH: B1 VH with Q5L, S31D, K40R, A58S, T61S, T92A
VL: B1 VL
notes: Mouse monoclonal from hybridoma; isotype printed only for the sister subclone 4.191.3 (mouse IgG1, kappa); also called W7011-4.191.6
B5: WBP7011-4.15.10 (antibody, V domains shown)
VH: B1 VH with I34M, V37M, A58T, T61H, T92A, Y94F, Y110F
VL: B1 VL
notes: also called W7011-4.15.10
B6: WBP7011_4.231.5 (antibody, V domains shown)
VH: B1 VH with I34M, A58T, E59Q, T61N, T92A, G104S, G105P
VL: B1 VL
notes: also called W7011-4.231.5
B7: WBP7011_4.194.10 (antibody, V domains shown)
VH: B1 VH with I34M, A58T, E59K, T61N, T92A, G105S
VL: B1 VL with S28T, A85T
notes: also called W7011-4.194.10
B8: WBP7011_4.108.3 (antibody, V domains shown)
VH: B1 VH with K19E, V37L, T61N, E82D, S84N, T92A, G105S
VL: B1 VL
notes: also called W7011-4.108.3
B9: WBP7011-4.106.3 (antibody, V domains shown)
VH: B1 VH with T30S, T61A, T78S, S84G, T92A
VL: B1 VL
notes: also called W7011-4.106.3
B10: WBP7011-4.87.6 (antibody, V domains shown)
VH: QVQLQQSGAELVRPGSSVKISCKASGYAFSTYWMNWVKQRPGQGLEWIGQIYPGDDDTKYNGKFKGKASLTADKSSSTAYMQLISLTSEDSAVYFCARRYFRYDYWYSDVWGAGTTVTVTS
VL: DIQMTQTTSSLSASLGDRVTISCRASQDISNYLNWYQQKPDGTVKLLIYYTSRLHSGVPARFSGSGSGTDYSLTISNLEQEDIATYFCHQGNTLPLTFGAGTKLELK
B11: WBP7011_4.155.8 (antibody, V domains shown)
VH: EIQLQQSGPELVKPGASVKVSCKASGYAFTSYNMYWVKQSHGKSLEWIGYIDPYNGDTTYNQKFKGKATLTVDKSSSTAYMHLNSLTSEDSAVYYCLTTAYAMDYWGQGTSVTVSS
VL: QIVLTQSPAIMSASLGEEITLTCSASSTVNYMHWYQQKSGTSPKLLIYSTSNLASGVPSRFSGSGSGTFYSLTIRSVEAEDAADYYCHQWSSYPYTFGGGTKLEIK
B12: WBP7011_4.225.7 (antibody, mouse IgG2a, V domains shown)
VH: B11 VH
VL: B11 VL
notes: also called W7011-4.225.7
B13: WBP7011_4.202.9 (antibody, mouse IgG2a, V domains shown)
VH: B11 VH
VL: B11 VL
notes: also called W7011-4.202.9
B14: WBP7011-4.34.11-z1-m5-IgG1k (antibody, V domains shown)
VH: QVQLVQSGAEVKKPGSSVKVSCKASGYTFTDYVIHWVRQAPGQGLEWMGYFNPYNDGTEYNEKFKARVTITADKSTSTAYMELSSLRSEDTAVYYCARGPYYYGSSPFDYWGQGTTVTVSS
VL: DIVMTQTPLSLPVTPGEPASISCRSSQSLENSNHNTYINWYLQKPGQSPQLLIYRVSKRFSGVPDRFSGSGSGTDFTLKISRVEAEDVGVYYCHQVTHVPYTFGQGTKLEIK
notes: human IgG1, kappa by its name
B15: WBP7011-4.87.6-z1-IgG1k (N-S) (antibody, V domains shown)
VH: QVQLVQSGAEVKKPGASVKVSCKASGYAFSTYWMNWVRQAPGQGLEWMGQIYPGDDDTKYSGKFKGRVTITADKSTSTAYMELSSLRSEDTAVYYCARRYFRYDYWYSDVWGQGTTVTVSS
VL: DIQMTQSPSSLSASVGDRVTITCRASQDISNYLNWYQQKPGKVPKLLIYYTSRLHSGVPSRFSGSGSGTDFTLTISSLQPEDVATYYCHQGNTLPLTFGQGTKLEIK
notes: human IgG1, kappa by its name

These binders were tested against T1, human CD19 (human, UniProt P15391 20-556) (assay: flow cytometry on Ramos cells).
T1 construct: whole, on cells; also called Cluster of Differentiation 19; hPro1
T1 sequence (looked up): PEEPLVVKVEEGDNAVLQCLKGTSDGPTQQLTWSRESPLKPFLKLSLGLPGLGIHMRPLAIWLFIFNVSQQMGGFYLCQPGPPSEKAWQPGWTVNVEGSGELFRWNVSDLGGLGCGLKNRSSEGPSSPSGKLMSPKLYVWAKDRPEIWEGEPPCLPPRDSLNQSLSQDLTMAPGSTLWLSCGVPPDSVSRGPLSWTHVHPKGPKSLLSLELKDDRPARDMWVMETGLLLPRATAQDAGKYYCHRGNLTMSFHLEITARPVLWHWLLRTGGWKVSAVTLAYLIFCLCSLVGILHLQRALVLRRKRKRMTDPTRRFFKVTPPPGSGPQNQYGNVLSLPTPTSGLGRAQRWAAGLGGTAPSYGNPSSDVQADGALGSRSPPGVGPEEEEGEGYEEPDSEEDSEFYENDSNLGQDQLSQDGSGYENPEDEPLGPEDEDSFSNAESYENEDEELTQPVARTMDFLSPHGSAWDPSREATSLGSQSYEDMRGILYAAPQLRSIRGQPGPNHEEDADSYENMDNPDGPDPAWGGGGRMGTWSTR
Method: (§1) The Ramos cells were plated in 96-well U-bottom plates (BD) at a density of 1×10⁵ cells/well. The purified antibody were serially diluted in the staining buffer (1×PBS/1% BSA) and incubated with cells for 1 hr at 4° C. The cells were then washed twice with staining buffer (BSA/1×PBS). […] The cells were then washed twice and re-suspended in 100 μL staining buffer. The fluorescence intensity was measured by flow cytometry (BD Canto II) and analyzed by FlowJo.
Binding activity of the selected subclones were tested on Ramos cell by flow cytometry (FIG. 4).
For B1, the EC50 was 0.17 nM.
Binder B2 has an EC50 of 0.23 nM.
In the case of B3, the EC50 is reported as 0.1 nM.
Work on B4 yielded an EC50 of 0.07 nM.
Work on B5 yielded an EC50 of 0.31 nM.
For B6, the EC50 was 0.12 nM.
In the case of B7, the EC50 is reported as 0.15 nM.
Work on B8 yielded an EC50 of 0.19 nM.
In the case of B9, the EC50 is reported as 0.23 nM.
With B10 the EC50 was 0.1 nM.
For B11, the EC50 was 0.85 nM.
For B12, the EC50 was 0.45 nM.
For B13, the EC50 was 0.64 nM.

These binders were tested against T1, human CD19 (assay: cell-based or functional assay).
In the case of B1, the “EC50 of cell viability, Fab-Zap assay on Ramos cells (internalization)” value (“EC50 of cell viability, Fab-Zap assay” below) is reported as 0.0148 nM.
With B2 the “EC50 of cell viability, Fab-Zap assay” value was 0.007 nM.
B3 was tested, and the “EC50 of cell viability, Fab-Zap assay” value was 0.0084 nM.
In the case of B4, the “EC50 of cell viability, Fab-Zap assay” value is reported as 0.0191 nM.
In the case of B5, the “EC50 of cell viability, Fab-Zap assay” value is reported as 0.0139 nM.
B6 was tested, and the “EC50 of cell viability, Fab-Zap assay” value was 0.0085 nM.
With B7 the “EC50 of cell viability, Fab-Zap assay” value was 0.0117 nM.
For B8, the “EC50 of cell viability, Fab-Zap assay” value was 0.0206 nM.
In the case of B9, the “EC50 of cell viability, Fab-Zap assay” value is reported as 0.0136 nM.
B10 was tested, and the “EC50 of cell viability, Fab-Zap assay” value was 0.0085 nM.
In the case of B11, the “EC50 of cell viability, Fab-Zap assay” value is reported as 0.0276 nM.
In the case of B12, the “EC50 of cell viability, Fab-Zap assay” value is reported as 0.015 nM.
In the case of B13, the “EC50 of cell viability, Fab-Zap assay” value is reported as 0.0236 nM.

These binders were tested against T2, cynomolgus monkey CD19 (cynomolgus monkey, UniProt A0A2K5W8L9 20-557) (assay: flow cytometry on cynomolgus CD19 transfected CHO-K1 cells).
T2 construct: whole, on cells; also called cyno CD19; cPro1
T2 sequence: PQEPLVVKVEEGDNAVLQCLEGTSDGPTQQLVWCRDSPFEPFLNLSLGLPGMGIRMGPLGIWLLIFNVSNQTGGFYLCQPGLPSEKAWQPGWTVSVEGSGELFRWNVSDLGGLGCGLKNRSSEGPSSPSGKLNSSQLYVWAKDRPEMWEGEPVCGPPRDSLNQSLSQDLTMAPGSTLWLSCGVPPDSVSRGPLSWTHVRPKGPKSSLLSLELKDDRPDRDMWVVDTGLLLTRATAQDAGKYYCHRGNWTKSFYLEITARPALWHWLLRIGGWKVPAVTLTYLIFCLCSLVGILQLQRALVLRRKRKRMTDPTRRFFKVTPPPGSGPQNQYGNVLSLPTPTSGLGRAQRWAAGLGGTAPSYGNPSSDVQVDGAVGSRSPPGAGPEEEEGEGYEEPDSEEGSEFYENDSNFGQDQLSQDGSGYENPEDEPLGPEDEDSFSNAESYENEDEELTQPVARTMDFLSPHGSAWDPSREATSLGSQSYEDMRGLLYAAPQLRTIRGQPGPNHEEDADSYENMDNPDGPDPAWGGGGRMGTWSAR
Method: as §1, with “cynomolgus CD19 transfected CHO-K1” for “Ramos”
The binding activity to cynomogus monkey CD19 of candidate antibodies was evaluated using cynomolgus monkey CD19 transfected CHO-K1 cell line (FIG. 5).
B1 gave an EC50 of 0.438 nM.
For B2, the EC50 was 0.443 nM.
B3 gave an EC50 of 0.438 nM.
Binder B5 has an EC50 of 0.46 nM.
B6 was tested, and the EC50 was 0.628 nM.
B7 showed an EC50 of 0.996 nM.
With B8 the EC50 was 0.863 nM.
In the case of B9, the EC50 is reported as 0.496 nM.
For B10, the EC50 was 0.285 nM.
With B11 the EC50 was 1.54 nM.
With B12 the EC50 was 1.77 nM.
For B13, the EC50 was 2.3 nM.

The binders below were run against T1, human CD19 (assay: FACS on Ramos cells, Scatchard analysis).
Method: KD was calculated using Scatchard Analysis.
Binder B14 has a Kd of 0.23 nM.
B15 showed a Kd of 0.25 nM.

What follows are binders tested against T1, human CD19 (assay: flow cytometry on CD19 transfected CHO-K1 cells, Scatchard analysis).
Method: The CD19 transfected CHO-K1 cells or Ramos cells were plated in a 96-well plates (BD) at a density of 5×10⁴ cells/well. Antibodies to be tested were serially diluted in the staining buffer (1×PBS/1% BSA) and incubated with cells at 4° C. for 1 hr.
The affinity of selected candidate antibodies were tested on CD19 transfected CHO-K1 cell by flow cytometry.
B1 was tested, and the Kd was 0.213 nM.
With B2 the Kd was 0.181 nM.
For B3, the Kd was 0.118 nM.
For B5, the Kd was 0.17 nM.
For B6, the Kd was 0.17 nM.
With B7 the Kd was 0.42 nM.
B8 gave a Kd of 0.252 nM.
For B9, the Kd was 0.231 nM.
B10 showed a Kd of 0.0955 nM.
B11 gave a Kd of 0.949 nM.
Work on B12 yielded a Kd of 0.735 nM.
Binder B13 has a Kd of 0.847 nM.
